The source of these data is US11278600B2, “Human alpha-galactosidase variants” (Codexis, Inc., priority 2014, dated 2022).

Residue numbers refer to the chain shown, from its start.

The labels stand for the following.
B1: 195 (protein)
chain: LDNGLARTPTMGWLHWERFMCNLDCQEEPDSCISEKLFMEMAELMVSEGWKDAGYEYLCIDDCWMAPQRDSEGRLQADPQRFPHGIRQLANYVHSKGLKLGIYADVGNKTCAGFPGSFGYYDIDAQTFADWGVDLLKFDGCYCDSLENLADGYKHMSLALNRTGRSIVYSCEWPLYMWPFQKPNYTEIRQYCNHWRNFADIDDSWSSIKSILDWTSFNQERIVDVAGPGGWNDPDMLVIGNFGLSWNQQVTQMALWAIMAAPLFMSNDLRHISPQAKALLQDKDVIAINQDPLGKQGYQLRQGDNFEVWERPLSGLAWAVAMINRQEIGGPRSYTIAVASLGKGVACNPACFITQLLPVKRKLGFYEWTSRLRSHINPTGTVLLQLENTMQMSKDLLL
modifications: Synthetic Polypeptide sequence of Variant No. 195 of mature Human GLA
B2: 204 (protein)
chain: B1 chain with S206A, E367D
modifications: Synthetic Polypeptide sequence of Variant No. 204 of mature Human GLA
B3: 199 (protein)
chain: B1 chain with S206A, A350G, T369S
modifications: Synthetic Polypeptide sequence of Variant No. 199 of mature Human GLA
B4: 198 (protein)
chain: B1 chain with S206A, A350G, T369D
modifications: Synthetic Polypeptide sequence of Variant No. 198 of mature Human GLA
B5: 205 (protein)
chain: B1 chain with S206A, E367D, T369D, K394L, D395K, L396D
modifications: Synthetic Polypeptide sequence of Variant No. 205
B6: 196 (protein)
chain: B1 chain with S206A, A350G
modifications: Synthetic Polypeptide sequence of Variant No. 196 of mature Human GLA
B7: 201 (protein)
chain: B1 chain with C143T, S206A
modifications: Synthetic Polypeptide sequence of Variant No. 201 of mature Human GLA
B8: 202 (protein)
chain: B1 chain with C59A, S206A
modifications: Synthetic Polypeptide sequence of Variant No. 202 of mature Human GLA
B9: 200 (protein)
chain: B1 chain with C143A, S206A
modifications: Synthetic Polypeptide sequence of Variant No. 200 of mature Human GLA
B10: 203 (protein)
chain: B1 chain with S206A, E367A, T369D
modifications: Synthetic Polypeptide sequence of Variant No. 203 of mature Human GLA
B11: 197 (protein)
chain: B1 chain with S206A, A350G, K362Q, T369A
modifications: Synthetic Polypeptide sequence of Variant No. 197 of mature Human GLA

A short description of one series: HTP-analysis of yeast culture supernatants, no challenge (MUGal hydrolysis). Type of series: biochemical. Conditions: activity of the variant/activity of Rd2BB (SEQ ID NO: 10), yeast supernatant. The method, boiled down: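 GLA variants expressed in yeast INVSc1, secreted into SD-Ura broth over 66-84 h at 30° C; clarified supernatants tested without challenge. Supernatant mixed with McIlvaine buffer pH 4.8 and 2 mM MUGal (citrate/KCl, pH 4.6), 37° C for 30-180 min, carbonate-quenched, fluorescence Ex 355/Em 448 nm.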
On to B1, for which the “Relative Activity of GLA Variants After No Challenge (NC)” value was “+ (+ = 0.5 to 1.5 relative activity over Rd2BB (SEQ ID NO: 10))”.
Take B2: the “Relative Activity of GLA Variants After No Challenge (NC)” value is on record as “+ (+ = 0.5 to 1.5 relative activity over Rd2BB (SEQ ID NO: 10))”.
B3: the “Relative Activity of GLA Variants After No Challenge (NC)” value was “++ (++ = 1.5 to 2.5 relative activity over Rd2BB (SEQ ID NO: 10))”.
Same read-out and setting: in the case of B4 it was “++ (++ = 1.5 to 2.5 relative activity over Rd2BB (SEQ ID NO: 10))”; in that of B5, “++ (++ = 1.5 to 2.5 relative activity over Rd2BB (SEQ ID NO: 10))”.
Turning to B6, the “Relative Activity of GLA Variants After No Challenge (NC)” value is listed as “+ (+ = 0.5 to 1.5 relative activity over Rd2BB (SEQ ID NO: 10))”.
Consider B7, for which the “Relative Activity of GLA Variants After No Challenge (NC)” value is given as “+ (+ = 0.5 to 1.5 relative activity over Rd2BB (SEQ ID NO: 10))”.
As for B8, the “Relative Activity of GLA Variants After No Challenge (NC)” value is recorded as “+ (+ = 0.5 to 1.5 relative activity over Rd2BB (SEQ ID NO: 10))”.
In the case of B9, the “Relative Activity of GLA Variants After No Challenge (NC)” value is “+ (+ = 0.5 to 1.5 relative activity over Rd2BB (SEQ ID NO: 10))”.
On the same count and under the same terms, in the case of B10 it was “++ (++ = 1.5 to 2.5 relative activity over Rd2BB (SEQ ID NO: 10))”; in that of B11, “++ (++ = 1.5 to 2.5 relative activity over Rd2BB (SEQ ID NO: 10))”.

A short description of another series: HTP-analysis of supernatants pretreated with base (MUGal hydrolysis). It counts as biochemical. Conditions: challenge at pH 7.6; activity of the variant/activity of Rd2BB (SEQ ID NO: 10); yeast supernatant. The procedure, abridged: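 Fluorescence of released 4-MU (Ex 355 nm, Em 448 nm) after carbonate quench reports MUGal hydrolysis by GLA variants secreted from INVSc1 yeast. Before the acidic (pH 4.3-4.8) 30-180 min reaction at 37° C, supernatants had been pre-incubated at pH 7.0-9.7 for 1-18 h at 37° C.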
With B1, the “Relative Activity of GLA Variants After Challenge at pH 7.6” value (“Relative Activity … at pH 7.6” for short) was “+ (+ = 0.5 to 1.5 relative activity over Rd2BB (SEQ ID NO: 10))”.
On to B2, for which the “Relative Activity … at pH 7.6” value was “+ (+ = 0.5 to 1.5 relative activity over Rd2BB (SEQ ID NO: 10))”.
Turning to B3, the “Relative Activity … at pH 7.6” value was “++ (++ = 1.5 to 2.5 relative activity over Rd2BB (SEQ ID NO: 10))”.
Take B4: the “Relative Activity … at pH 7.6” value was “+++ (+++ = >2.5 relative activity over Rd2BB (SEQ ID NO: 10))”.
Take B5: the “Relative Activity … at pH 7.6” value is listed as “++ (++ = 1.5 to 2.5 relative activity over Rd2BB (SEQ ID NO: 10))”.
On to B6, for which the “Relative Activity … at pH 7.6” value is on record as “+ (+ = 0.5 to 1.5 relative activity over Rd2BB (SEQ ID NO: 10))”.
As to B7, the “Relative Activity … at pH 7.6” value is “+ (+ = 0.5 to 1.5 relative activity over Rd2BB (SEQ ID NO: 10))”.
With B8, the “Relative Activity … at pH 7.6” value is listed as “+ (+ = 0.5 to 1.5 relative activity over Rd2BB (SEQ ID NO: 10))”.
Still for that read-out and setting: in the case of B9 it was “+ (+ = 0.5 to 1.5 relative activity over Rd2BB (SEQ ID NO: 10))”.
On to B10, for which the “Relative Activity … at pH 7.6” value is “+++ (+++ = >2.5 relative activity over Rd2BB (SEQ ID NO: 10))”.
With B11, the “Relative Activity … at pH 7.6” value is reported as “++ (++ = 1.5 to 2.5 relative activity over Rd2BB (SEQ ID NO: 10))”.

A short description of the next series: HTP-analysis of supernatants pretreated with acid (MUGal hydrolysis). It counts as biochemical. Particulars: challenge at pH 4.2; activity of the variant/activity of Rd2BB (SEQ ID NO: 10); yeast supernatant. The procedure, abridged: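 Yeast INVSc1 supernatant, GLA variants; acid challenge: McIlvaine pH 3.3-4.3, 37° C., 1-3 h. Assay: MUGal in McIlvaine pH 4.8 plus citrate pH 4.3, 37° C., 30-180 min, Na2CO3 stop, Ex 355/Em 448 nm.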
As to B1, the “Relative Activity of GLA Variants After Challenge at pH 4.2” value (“Relative Activity … at pH 4.2” for short) was “+ (+ = 0.5 to 1.5 relative activity over Rd2BB (SEQ ID NO: 10))”.
In the case of B2, the “Relative Activity … at pH 4.2” value is on record as “+ (+ = 0.5 to 1.5 relative activity over Rd2BB (SEQ ID NO: 10))”.
As for B3, the “Relative Activity … at pH 4.2” value is given as “++ (++ = 1.5 to 2.5 relative activity over Rd2BB (SEQ ID NO: 10))”.
Regarding B4, the “Relative Activity … at pH 4.2” value was “++ (++ = 1.5 to 2.5 relative activity over Rd2BB (SEQ ID NO: 10))”.
Regarding B5, the “Relative Activity … at pH 4.2” value is listed as “++ (++ = 1.5 to 2.5 relative activity over Rd2BB (SEQ ID NO: 10))”.
As for B6, the “Relative Activity … at pH 4.2” value is “+ (+ = 0.5 to 1.5 relative activity over Rd2BB (SEQ ID NO: 10))”.
As for B7, the “Relative Activity … at pH 4.2” value is recorded as “+ (+ = 0.5 to 1.5 relative activity over Rd2BB (SEQ ID NO: 10))”.
Same read-out and setting: in the case of B8 it was “+ (+ = 0.5 to 1.5 relative activity over Rd2BB (SEQ ID NO: 10))”; in that of B9, “+ (+ = 0.5 to 1.5 relative activity over Rd2BB (SEQ ID NO: 10))”.
Take B10: the “Relative Activity … at pH 4.2” value was “++ (++ = 1.5 to 2.5 relative activity over Rd2BB (SEQ ID NO: 10))”.
Regarding B11, the “Relative Activity … at pH 4.2” value is listed as “++ (++ = 1.5 to 2.5 relative activity over Rd2BB (SEQ ID NO: 10))”.
